Here are results for one molecule from US20250270302A1.

Assay [1] has as its target human Gremlin-1 (huGREM1), recombinant protein (human) (UniProt O60565). The assay can be described thus: cell-based or functional assay.
For assay [2] the target is unchanged. The assay can be described thus: binding ELISA on huGREM1, hybridoma clone selection.

Chain of UniProt O60565 (O60565 25-184 limits assumed): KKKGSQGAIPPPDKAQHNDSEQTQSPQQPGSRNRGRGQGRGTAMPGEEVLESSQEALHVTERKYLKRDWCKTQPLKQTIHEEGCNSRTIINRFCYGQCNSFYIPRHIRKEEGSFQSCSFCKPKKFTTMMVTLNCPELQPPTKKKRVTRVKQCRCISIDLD

B1: anti-Gremlin-1 antibody 14-D10-2 (antibody, from a related filing, IgG2b, V domains shown)
VH: EVQLQQSGPELVKPGASVKISCKASGYSFTGYYMHWVKQSHGNILDWIGYFFPYNGFSNCNQKFKGKATLTVDKSSSTAYMELRSLTSEDSAVYYCARGGLGRGYFDVWGTGTTVTVSS
VL: DIQMTQSPSYLSVSLGGRVTITCKASDHINNWLAWYQQKPGNAPRLLISGATSLETGVPSRFSGSGSGKDYTLSITSLQTEDVATYYCQQYWSSPRTFGGGTKLEIK
B1: the EC50, in vitro Gremlin-1 neutralization assay (ALP activity in ATDC5 cells) in assay [1] worked out at 26.4 nM. The OD 492 nm in assay [2] was > 0.9 OD 492 nm.
